Measured values from patent publication US20230340152A1 (published 2023).

Columns and labels:
Human CD73 ECD [1] = target: T1, Human CD73 ECD (human, UniProt P21589 27-549); experiment: cell-based or functional assay
T1 sequence: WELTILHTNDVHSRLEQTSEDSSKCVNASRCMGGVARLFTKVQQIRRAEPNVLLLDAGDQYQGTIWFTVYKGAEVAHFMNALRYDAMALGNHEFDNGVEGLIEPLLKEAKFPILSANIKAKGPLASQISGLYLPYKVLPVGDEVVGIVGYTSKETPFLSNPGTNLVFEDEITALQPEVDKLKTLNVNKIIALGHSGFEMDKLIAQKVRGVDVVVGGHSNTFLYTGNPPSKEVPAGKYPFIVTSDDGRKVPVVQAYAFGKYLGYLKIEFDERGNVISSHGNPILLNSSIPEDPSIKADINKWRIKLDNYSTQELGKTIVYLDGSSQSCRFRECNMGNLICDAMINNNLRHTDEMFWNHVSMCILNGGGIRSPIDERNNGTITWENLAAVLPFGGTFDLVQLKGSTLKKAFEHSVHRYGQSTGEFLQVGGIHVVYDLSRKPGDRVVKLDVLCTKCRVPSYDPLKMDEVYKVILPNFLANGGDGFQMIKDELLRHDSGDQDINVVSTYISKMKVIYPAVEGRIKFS

[2] = target: T2, Human CD73 on cells (MDA-MB-231, Jurkat CD73 knock-in, NCI-H322) (human, UniProt P21589 27-549); experiment: cell-based or functional assay
T2 sequence: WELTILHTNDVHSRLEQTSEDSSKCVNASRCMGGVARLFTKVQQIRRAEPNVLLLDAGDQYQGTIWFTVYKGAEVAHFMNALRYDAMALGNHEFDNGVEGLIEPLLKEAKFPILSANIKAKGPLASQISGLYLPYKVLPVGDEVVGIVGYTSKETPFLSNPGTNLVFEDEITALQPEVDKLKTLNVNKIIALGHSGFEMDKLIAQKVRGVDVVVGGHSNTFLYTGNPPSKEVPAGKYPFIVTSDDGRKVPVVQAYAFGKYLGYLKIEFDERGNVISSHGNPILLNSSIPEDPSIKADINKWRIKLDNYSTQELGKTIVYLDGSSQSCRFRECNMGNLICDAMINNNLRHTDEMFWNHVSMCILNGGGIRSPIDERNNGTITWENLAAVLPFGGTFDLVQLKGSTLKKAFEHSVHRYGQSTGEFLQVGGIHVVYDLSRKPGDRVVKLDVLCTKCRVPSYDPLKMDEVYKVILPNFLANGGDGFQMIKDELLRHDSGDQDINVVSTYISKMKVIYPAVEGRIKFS

Human CD73 ECD [3] = target: T1, Human CD73 ECD; experiment: binding assay, format not stated
Murine CD73 ECD [4] = target: T3, Murine CD73 ECD (murine, UniProt Q61503 29-551, limits assumed); experiment: binding assay, format not stated
T3 construct: extracellular domain; In-house recombinant ECD; also called murine CD73 extracellular domain; muCD73
T3 sequence (looked up): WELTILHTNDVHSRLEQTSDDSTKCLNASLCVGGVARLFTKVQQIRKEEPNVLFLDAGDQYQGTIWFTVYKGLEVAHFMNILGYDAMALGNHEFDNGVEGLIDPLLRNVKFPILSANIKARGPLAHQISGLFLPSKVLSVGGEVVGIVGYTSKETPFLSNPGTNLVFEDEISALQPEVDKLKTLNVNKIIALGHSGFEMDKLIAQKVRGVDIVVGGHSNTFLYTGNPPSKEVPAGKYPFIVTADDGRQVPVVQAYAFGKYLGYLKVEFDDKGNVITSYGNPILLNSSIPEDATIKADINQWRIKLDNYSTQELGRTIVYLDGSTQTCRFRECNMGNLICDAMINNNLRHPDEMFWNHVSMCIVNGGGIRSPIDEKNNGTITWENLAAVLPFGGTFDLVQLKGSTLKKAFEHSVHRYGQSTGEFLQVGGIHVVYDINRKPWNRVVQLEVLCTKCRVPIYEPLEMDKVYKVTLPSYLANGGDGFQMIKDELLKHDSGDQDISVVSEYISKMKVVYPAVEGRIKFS

Cynomolgus CD73 ECD = target: T4, Cynomolgus CD73 ECD (cynomolgus, UniProt A0A2K5V5U7 27-549); experiment: binding assay, format not stated
T4 construct: extracellular domain; also called cyno CD73
T4 sequence: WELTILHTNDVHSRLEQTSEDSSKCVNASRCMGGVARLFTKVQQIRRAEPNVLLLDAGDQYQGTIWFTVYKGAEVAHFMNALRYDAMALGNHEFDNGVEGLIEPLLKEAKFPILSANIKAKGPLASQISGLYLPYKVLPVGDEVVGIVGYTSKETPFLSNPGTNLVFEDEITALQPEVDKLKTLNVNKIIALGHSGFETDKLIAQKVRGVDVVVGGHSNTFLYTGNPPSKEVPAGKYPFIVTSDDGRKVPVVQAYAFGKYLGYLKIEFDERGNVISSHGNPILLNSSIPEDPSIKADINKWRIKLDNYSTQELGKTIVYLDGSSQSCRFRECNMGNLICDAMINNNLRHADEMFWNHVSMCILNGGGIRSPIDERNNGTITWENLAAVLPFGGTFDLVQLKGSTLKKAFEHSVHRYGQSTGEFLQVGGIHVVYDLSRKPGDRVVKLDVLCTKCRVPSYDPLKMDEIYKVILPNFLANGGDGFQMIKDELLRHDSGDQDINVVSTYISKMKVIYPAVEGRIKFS

Human CD73 ECD [5] = target: T1, Human CD73 ECD; experiment: direct ELISA, normalized Fab supernatant, vs CD730010 GL9
Murine CD73 ECD [6] = target: T3, Murine CD73 ECD; experiment: as above

Binder | Enzyme Inhibition, rCD73, 1/EC50 (nM) (Human CD73 ECD [1]) [nM⁻¹] | Enzyme Inhibition, MDA-MB-231, 1/EC50 (nM) [2] [nM⁻¹] | Internalization, MDA-MB-231, 1/EC50 (nM) [2] [nM⁻¹] | 1/EC50 (Human CD73 ECD [3]) [nM⁻¹] | 1/EC50 (Murine CD73 ECD [4]) [nM⁻¹] | 1/EC50 (Cynomolgus CD73 ECD) [nM⁻¹] | ELISA signal, fold improvement over parental antibody (Human CD73 ECD [5]) [fold] | ELISA signal, fold improvement over parental antibody (Murine CD73 ECD [6]) [fold]
CD730021 (antibody, V domains shown, IgG1-TM format; also called CD730021 antibody) VH: QVQLQESGPGLVRPSETLSLTCTVSGGSISSSSYYWAWVRQSPGKGLEWIGNIYYRGSTYYNPSLKSRVTMSVDMSKHQFSLKLSSLNAADTAVYYCASLYSGTYVFDYWGRGTLVTVSS VL: QSVLTQPPSASGTPGQRVTISCSGSRPNIGGNTVNWYQQLPGAAPKLLIYSNSQRPSGVPDRFSGSKYGTSASLAISGLQSDDEADYYCGTWDDSLNGPVFGRGTKLTVL | 0.0011 | 0.0095 | 0.0011 | 0.00085 | 0.00057 | 0.0012 |  | 
CD730046 (antibody, V domains shown, IgG1-TM format; also called CD730046 antibody) VH: QVQLVQSGGGVVQPGRSLRLSCAASGFTFSSYGMHWVRQAPGKGLEWVAVISYDGSIKYYADSVKGRFTISRDNSKNSLFLQMNSLRDDDTATYYCARGHLLRIGDIFYYSLDVWGQGTLVTVSS VL: not shown | 0 | 0.081 | 0 | 0.0041 | 0.0052 | 0.01 |  | 
CD730047 (antibody, V domains shown, IgG1-TM format; also called CD730047 antibody) VH: EVQLVQSGGGVVQPGRSLRLSCAASGFTFSSYGMHWVRQAPGKGLEWVAVISYDGSIKYYADSVKGRFAISRDNAKNTLYLQMNSLRREDTAMYYCASGLTGVAGALGVWGRGTLVTVSS VL: QSVLTQPPSASGAPGQRVTISCSGSSSNIGSNTVNWYQRLPGAAPQLLIYNNDQRPSGIPDRFSGSKSGTSGSLVISGLQSEDEADYYCAAWDDSLSGNVFGTGTKVTVL | 0.001 | 0.027 | 0.001 | 0 |  |  |  | 
CD730011 (antibody, V domains shown, IgG1-TM format; also called CD730011 antibody; CD7300011) VH: not shown VL: NFMLTQPHSVSESPGKTVTISCTRSSGSIASKYVQWYQQRPGSSPMAVIYKDNQRSSGVPDRFSGSIDSSSNSASLTISGLKPEDEADYYCQSYDASNYYVFGTGTKVTVL | 0 | 0.00068 | 0 | 0.0021 | 0.0015 | 0.0027 |  | 
CD730042 (antibody, V domains shown, IgG1-TM format; also called CD730042 antibody) VH: GVQLVQSGGGLVQPGGSLRLSCAASGFTFSSYGMHWVRQAPGKGLEWVAVISYDGSIKYYADSVKGRFTISRDDSKNALYLQMNSLRAEDTAVYYCSTLSGSYGYFDYWGRGTLVTVSS VL: QSVLTQPASVSGSPGQSITISCAGTSSDVGGYNYVSWYQQHPGKAPKLMIYEGSKRPSGVSNRFSGSKSGNTASLTISGLQAEDEADYYCSSYTTRSTRVFGGGTKLTVL | 0 | 0.0032 | 0 | 0.0017 |  | 0.0014 |  | 
CD730004 (antibody, V domains shown, IgG1-TM format; also called CD730004 antibody) VH: not shown VL: NFMLTQPHSVSESPGQTVTISCTRSSGSIASKYVQWYQKRPGSSPTTVIYEDTQRPSGVPDRFSGSIDISSNSASLTISGLRTEDEADYYCQSYDSTNWVFGGGTKVTVL |  | 0.06 | 0 |  | 0.00023 |  |  | 
CD730008 (antibody, IgG1, V domains shown, IgG1-TM format; also called CD730008 antibody) VH: EVQLLETGGGLVQPGGSLRLSCAASGFTFSSYAMSWVRQAPGKGLEWVSAISGSGGSTYYADSVKGRFTISRDNSKNTLYLQMNSLRAEDTAVYYCARGNYGNLDHWGKGTLVTVSS VL: QSVLTQPPSVSVSPGQTASITCSGDKVGDKYASWYQQKPGQSPVLVIYQDRKRPSGIPERFSGSNSGNTATLTISGTQPMDEADYYCQAWDSSHWVFGGGTKLTVL | 0 | 0.11 | 0 | 0.0011 | 0.00058 | 0.0011 |  | 
CD730010 GL9 VH M34Y Fab (Fab, name in Kabat numbering, V domains shown, Bacterial Fab, normalized supernatant) VH: EVQLLESGGGLVQPGGSLRLSCAASGFTFSSYAYSWVRQAPGKGLEWVSAISGSGGSTYYADSVKGRFTISRDNSKNTLYLQMNSLRAEDTAVYYCARLGYSTIDYWGRGTLVTVSS VL: not shown |  |  |  |  |  |  | 3.9 | 2.9
CD730010 GL9 VH S52W Fab (Fab, name in Kabat numbering, V domains shown, Bacterial Fab, normalized supernatant) VH: EVQLLESGGGLVQPGGSLRLSCAASGFTFSSYAMSWVRQAPGKGLEWVSAIWGSGGSTYYADSVKGRFTISRDNSKNTLYLQMNSLRAEDTAVYYCARLGYSTIDYWGRGTLVTVSS VL: not shown |  |  |  |  |  |  | 8.9 | 4.4
CD730010 GL9 VH G54W Fab (Fab, name in Kabat numbering, V domains shown, Bacterial Fab, normalized supernatant) VH: EVQLLESGGGLVQPGGSLRLSCAASGFTFSSYAMSWVRQAPGKGLEWVSAISGSWGSTYYADSVKGRFTISRDNSKNTLYLQMNSLRAEDTAVYYCARLGYSTIDYWGRGTLVTVSS VL: not shown |  |  |  |  |  |  | 4.2 | 3.7
CD730010 GL9 VH S35H Fab (Fab, name in Kabat numbering, V domains shown, Bacterial Fab, normalized supernatant) VH: EVQLLESGGGLVQPGGSLRLSCAASGFTFSSYAMHWVRQAPGKGLEWVSAISGSGGSTYYADSVKGRFTISRDNSKNTLYLQMNSLRAEDTAVYYCARLGYSTIDYWGRGTLVTVSS VL: not shown |  |  |  |  |  |  | 1.8 | 1.1
CD730010 GL9 VH G54N Fab (Fab, name in Kabat numbering, V domains shown, Bacterial Fab, normalized supernatant) VH: EVQLLESGGGLVQPGGSLRLSCAASGFTFSSYAMSWVRQAPGKGLEWVSAISGSNGSTYYADSVKGRFTISRDNSKNTLYLQMNSLRAEDTAVYYCARLGYSTIDYWGRGTLVTVSS VL: not shown |  |  |  |  |  |  | 8.9 | 7.1
CD730010 GL9 VH M34I Fab (Fab, name in Kabat numbering, V domains shown, Bacterial Fab, normalized supernatant) VH: EVQLLESGGGLVQPGGSLRLSCAASGFTFSSYAISWVRQAPGKGLEWVSAISGSGGSTYYADSVKGRFTISRDNSKNTLYLQMNSLRAEDTAVYYCARLGYSTIDYWGRGTLVTVSS VL: not shown |  |  |  |  |  |  | 1.5 | 1.1
CD730010 GL9 VH A50L Fab (Fab, name in Kabat numbering, V domains shown, Bacterial Fab, normalized supernatant) VH: EVQLLESGGGLVQPGGSLRLSCAASGFTFSSYAMSWVRQAPGKGLEWVSLISGSGGSTYYADSVKGRFTISRDNSKNTLYLQMNSLRAEDTAVYYCARLGYSTIDYWGRGTLVTVSS VL: not shown |  |  |  |  |  |  | 4.2 | 3
CD730010 GL9 VH S56R Fab (Fab, name in Kabat numbering, V domains shown, Bacterial Fab, normalized supernatant) VH: EVQLLESGGGLVQPGGSLRLSCAASGFTFSSYAMSWVRQAPGKGLEWVSAISGSGGRTYYADSVKGRFTISRDNSKNTLYLQMNSLRAEDTAVYYCARLGYSTIDYWGRGTLVTVSS VL: not shown |  |  |  |  |  |  | 5.6 | 4.9
